Common to all, as to test: native gel or EMSA
(Mobility shift assays separate free from complexed probe on a gel.)

Assay [1] has as its target H3K18CubK23Cub nucleosome core particle (UniProt P68431).
Assay [2] addresses unmodified nucleosome core particle (recombinant H3, H2A, H2B, H4 octamer on He601 DNA) (UniProt P68431).
In assay [3] the target is H3K18Cub nucleosome core particle (UniProt P68431).
The target in assay [4] is H3K23Cub nucleosome core particle (UniProt P68431).

These results are taken from PMC10231317.

Regarding “N-terminal truncated mouse DNMT1 (residues 291–1620) (from UniProt P13864 291-1620) (enzyme)”, the Kd (in general, the constant that tells how readily two partners part at equilibrium) in assay [1] was determined as 13 nM; in assay [2], 193 nM; in assay [3] it was 116 nM; in assay [4], 136 nM. For the same substance, the percent of NCP shifted at 250 nM mDNMT1 in assay [3] and in assay [4] was 70% each time.
